Assay results taken from the supplement of paper PMC9170038.

test system: K4 kissing-loop RNA reporter; test: apparent KD of K4 kissing-loop reporter; higher = weaker reporter binding; settings: Eterna round: R107; input ligand: theophylline 20 uM
Description: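 RNA-MaP round R107: designed RNA switches with theophylline, tryptophan, arginine or FMN aptamers are transcribed on-chip within common flanks. They are titrated with a labelled K4 kissing-loop RNA reporter in RNA-MaP buffer (100 mM Tris pH 7.5, 80 mM KCl, 4 mM MgCl2), without ligand or with the indicated ligand. Median apparent KD per design.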
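Note: bound reporter read as fluorescence of individual clusters on recovered sequencing chips by microscopy, with normalized cluster intensities fitted with a binding model.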

Going from “AAUGUACAGGGAAGGAGCGCCGUCCAGUGAUGUUGGAGUUAAAUACCAGUGAUGUUGGUUAGGCAGGUAGGUCGCCCUAUAGUAU [#07 K4 Arginine B Exclusion]” to “AGUAGUUGGACGGCCGCCACUAGAACGGCUUUGCCAAAGGCAGAGCACUAGAGUGAUGUUCUAGCUAGGACCGGGUCCAACUACA [Omei KL Tryp B SS A v3]”, the “apparent KD of K4 kissing-loop reporter” value rises from 134 nM to 403 nM (3-fold).

Going from “UGGGAUGUUAAAGGAUAUAGCAAGUGAUAUAAGAAAGUGAGUGAUGUUUAUGUAGGUGAUGAUAUGUUAGAAGGUUAACAAAACG [abcdefgh]” to “UAUAUAGUGACGGCCGCCACUAUAUUAAUGUUUUUGUUAGAGUGAUGUUUUGUUUAAUAUUUUUAUAGGACCGGGUUAUAUGUUA [zsqqxmullin]”, the “apparent KD of K4 kissing-loop reporter” value rises from 185 nM to 557 nM (3-fold).

Going from “GGUAGCAUGGCGGCCGCCACUAACAACCUCACCUGCGGCUCGAUCGAGUGAUGUUCGAACGCAAUUAGGACCGGGCCAUGCUACC” to “UGGAGUUGACGAAAAGUCAACUCCUGAGAUACCAGUGACGAAAGUCACCCUUGGCAGCUCACUGGCAGUGAUGUUGCAAAAUAAA [KL-SSTheo-A4]”, the “apparent KD of K4 kissing-loop reporter” value falls from 143 nM to 84.7 nM (1.7-fold).

“AUGCGCGUGCGAUGAAAAUCGCACGCGCAUCGAGGACCGGUACGGCCGCCACUCGCUCGCGCCGAGUGAUGUUCGGCCGGCGAAC [#2 Same State - Tryptophan A Attempt #4 (HarryS)]” and “AUAGGAGUGAUGUUCCUUAGUUUCUCCGAUACCAGUAUGGAAACAUACCCUUGGCAGCGGGAAACCGCUGAUUAGGAAACUAGUC [Theophylline A K4 7]” are within 1.5-fold of each other in “apparent KD of K4 kissing-loop reporter” value: 217 nM for the first, 242 nM for the second.

Compared with “GGCAGUGAUGUUGCCAGUGGCAGAUGCGAAGGAGCGCGGUGAGACGCAGGUAGGUCGCGCAUUGAAAUUGCUGUCACUAAAAUGC [#1]”, “AAUUUACAAUAAUCAUUUAAAGGAUCAGAAGGAGCGUGAAAUAACACAGGUAGGUCGCUGAGCGAGUGAUGUUCGCUAUAUACAA [JR_ExcArginiA_Sub001]” is 3.7-fold lower in “apparent KD of K4 kissing-loop reporter” value: 320 nM for the first, 85.9 nM for the second.

Going from “GCCGUACGCAUGGAUACCAGUCUAAGAGUGAUGUUCUUACCGAUUGCGCCUGGAUCAUUAGACCCUUGGCAGCCAUGCGUACGGC” to “GAUCUGAACGAAAGUUCGGAUCAUUCCGAUACCAGUAUGGAUUCAUACCCUUGGCAGCGGGAUUCUGCUAUGGAGUGAUGUUCCA [Theophylline A K4 15]”, the “apparent KD of K4 kissing-loop reporter” value rises from 148 nM to 400 nM (2.7-fold).

Compared with “GGGAGUAGUGCGGCCGCCACUGAGAAAGAAGAAGAAUGUAGUGAUGUUAUGUAGGAAAGGAAGAACAGGACCGGGCAUUAGAUUU [SSTRyptB.H]”, “CGCAGUGAUGUUGCGAAUAUAAUAACGGAAGGAGCGCGUGAAAACGCAGGUAGGUCGCCGAUUGGUAUGAUGGAAACAUCGUACC [Arginine A K4 9]” is 7.3-fold lower in “apparent KD of K4 kissing-loop reporter” value: 840 nM for the first, 115 nM for the second.

Going from “AAAUCUUUCAGAAGGAGCGUGGAUUAUUCAUAUAUAUUUAUUACGAGUGAUGUUCGUAAUUCACAGGUAGGUCGCUGUUCAAUAA [JR_ExcArginiB_Sub005]” to “UAAGAGUCUCUGCAAUUAGCAGAGACUCAACGAGGACCGGUACGGCCGCCACUCGGGUCCUAGAGUGAUGUUCUAAUAAUAUAAU [AK1.1 SS Tryptophan A]”, the “apparent KD of K4 kissing-loop reporter” value rises from 116 nM to 425 nM (3.7-fold).

Going from “UGAUAAAGCAGUGAUGUUGCAAGUAAUGAUACCAGUUAAGAAGAGAACCCUUGGCAGCAUAAAGUGCGCUCUGAUGAGUGUGCUU [whbob_SS_Theo_A_w52]” to “UGAUACCAGACGGCCGCCACUCCUGCAAGUCAAAGACUUGCUAAAAGGAUCGUCCAGUGAUGUUGGAGGACCGGGUCUGGUAUCU [TrypBX 19 #SwitchBubble #Palindromic #StaticStem]”, the “apparent KD of K4 kissing-loop reporter” value rises from 152 nM to 638 nM (4.2-fold).

“GCUCAGGAGUGAUGUUCCUAGUGAUGUUAACGAGGACCGGUACGGCCGCCACUCGAUACGGCCGGACCGUAGGAUAAACUAGAGC [Same State - Tryptophan A (Freestyle 10)]” and “UCUCGGGCCAGUGAUGUUGGCGGCUAGUGGCGAGGACCGGUACGGCCGCCACUCGGCGCAGCAGCGGAGUGAUGUUUCGUGAGUA [Same State Tryptophan A GF 17]” are within 1.5-fold of each other in “apparent KD of K4 kissing-loop reporter” value: 351 nM for the first, 441 nM for the second.

Compared with “AAACGUUGGUGCGAUACCAGCUUGAUCGGUAAACGAUCUACUGGAGUGAUGUUCCUAAAUAGCCCUUGGCAGCGCACCGACGAAA [MAT - Same State Theophlline B - Mod of Eli - D8]”, “AGUCCGCUCCAAGGAUAUAGUCCGGCUGCGCGUCAGUGAUGUUGAAGAAGUAUCGCGUCUCUAUAGCUAGAAGGUGGCGCAAUUG [theeternabot_sameState_KL_FMN_B_20]” is 5.4-fold higher in “apparent KD of K4 kissing-loop reporter” value: 128 nM for the first, 696 nM for the second.

“UUUAGGAGCGGUGUUGAUUAGGGAGCGGAAGGAGCGCCGAUUAUGGCAGGUAGGUCGCCGGAAUGUAGUGAUGUUGCAUAGAGGG [ExArgA.V]” and “UAUAGACAAGUGAUGUUUGUCAUAUCCGAAGGAGCGUCUUCUAAGACAGGUAGGUCGCGGAUUAAUUUUGUUAUGAUACUAUUUA [JR_SSArginiA_Sub016]” are within 1.5-fold of each other in “apparent KD of K4 kissing-loop reporter” value: 154 nM for the first, 133 nM for the second.

Compared with “UUGAGUGAUGUUCAAUUAAUGUGCAACGAUACCAGCUCAUAUGCUAGCCCUUGGCAGCGUGGUAACGUAAUUUUAUCAAAUGAUA [theeternabot_exclusion_KL_Theo_A_39]”, “GGUUAGUGAUGUUGAUCAAAUCGCGGUGAUACCAGCAACACAUCGUGCCCUUGGCAGCACGGCAAAAUGAAUGCGGUCGAAUGCG [theeternabot_exclusion_KL_Theo_A_19]” is 2.3-fold higher in “apparent KD of K4 kissing-loop reporter” value: 205 nM for the first, 478 nM for the second.
